B1: peptide derived from Jagged1 displayed by clone Jag-ecpX3 (peptide)
peptide: RVTCDDYYYGFGCNKFGRPA
notes: also called Jagged1-derived peptide; fragment of JAG1

Biological target: T1, human Notch1 EGF-like domains 11-13 fused to the Fc domain of human IgG1 (hN111-13-hFc) (human, UniProt P46531 411-526, biotinylated with NHS-PEG-biotin (hN111-13-hFc-biot) or labeled with DyLight-488, depending on the round)
T1 construct: also called hN111-13-hFc-biot; hN111-13-hFc-Dy488; not shown: Fc domain of human IgG1 as encoded by pINFUSE-hIgG1-Fc2 (InvivoGen)
Test: bacterial display library screen, magnetic selection and FACS with labeled hN111-13-hFc
Experimental: Following two rounds of magnetic selection, the remaining rounds of screening were performed on a Becton Dickinson FACSAria flow cytometer. In the first round of FACS, induced cells were incubated with 500 nM hN1₁₁₋₁₃-hFc-biot, 10 μM hIgG in TBS-Ca-B, washed, and incubated with fluorescent secondary label neutravidin-phycoerythrin (NAPE) (Invitrogen) at 10 nM, before sorting by flow cytometry for fluorescently labeled cells. Cells amplified from overnight growth of the first round FACS population were induced and subjected to a second round of sorting with the same labeling conditions as in the first round or, alternatively, using 50 nM hN1₁₁₋₁₃-hFc-biot. A third round of sorting was conducted as in the second round but with 100 nM hN1₁₁₋₁₃-hFc-biot and the addition of 27 nM Ypet-Mona-SH3 in the secondary labeling step. Mona-SH3 binds an epitope on the C-terminus of the display scaffold, independent of the random peptide on the N-terminus. Cells were then sorted based on the ratio of 576 nm fluorescence (i.e. NAPE binding) to 530 nm fluorescence (i.e. Ypet-Mona binding) in order to normalize for differences in scaffold display level on individual cells.
Alternatively, third round sorting was conducted by incubating induced cells with 10 nM or alternatively, 50 nM unbiotinylated hN1₁₁₋₁₃-hFc in TBS-Ca-B before washing, labeling with fluorescent secondary 20 μg/ml anti-hIgG-DyLight-488, and sorting based on 530 nm fluorescence. Third round sorting was also conducted using either 50 nM or 250 nM hN1₁₁₋₁₃-hFc that had been fluorescently labeled with DyLight-488 (Thermo Pierce) (hN1₁₁₋₁₃-hFc-Dy488), and 10 μM hIgG, with no secondary labeling.

T1 sequence (P46531 411-526 limits assumed): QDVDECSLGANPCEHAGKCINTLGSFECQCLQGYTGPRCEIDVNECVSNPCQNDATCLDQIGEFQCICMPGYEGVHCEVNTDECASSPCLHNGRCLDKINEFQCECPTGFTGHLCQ

binding result	Binder
binds	EPKCSFCSPLIVPSP [PHB3479]
binds	YLLRLPSLEELWGPS [PHB3488]
binds	LLSSFVETMSSILTC [PHB3487]
binds	DFINSMRSHLQSSDQ [PHB3478]
binds	PNCIESFLSSIHDSL [PHB3480]
binds	NLDFYLNHLYNTLAG [PHB3476]
binds	TDNALFLETVQHYLY [PHB3482]
binds	TVLVIPDLHYLYVDR [PHB3337]
binds	ELTQLLNALVDVRNC [PHB3486]
binds	CYPSISWLFADAPRN [PHB3485]
binds	ATCYIINHWVERYII [PHB3489]
binds	FLNDIHRFLHWTDLM [PHB3325]
binds	CFPTVVWRELYNLYG [PHB3352]
binds	PYTFVEQVEYWLHAT [PHB3327]
binds	IYPLDALLRHLNSLC [PHB3349]
binds	PLYLPEIGWMFGLPT [PHB3336]
binds	ACVIHFLDRISNILE [PHB3333]
binds	ATMYAYLERLEAILS [PHB3343]
binds	FINNVETALDTIYNL [PHB3340]
binds	FPLNTFDLVHELLSR [PHB3324]
binds	FCYIAAFSAMQRQSC [PHB3334]
binds	SAKHLHPGRLPPMTK [PHB3341]

Biological target: T1, human Notch1 EGF-like domains 11-13 …
Test: flow cytometry of induced E. coli clones, 100 nM hN111-13-hFc-biot then 10 nM SAPE, normalized to scaffold display level
Experimental: Individual clones were tested by flow cytometry for hN1₁₁₋₁₃-hFc binding by labeling induced cells in TBS-Ca-B with (A.) 50 nM hN1₁₁₋₁₃-hFc-biot or (B.) 100 nM […] hN1₁₁₋₁₃-hFc-biot, followed by 10 nM Streptavidin-R-phycoerythrin (SAPE). Cells were separately labeled with 27 nM Ypet-Mona to measure peptide display level. The display scaffold alone (ecpX3) was used as a negative control.

binding result	Binder
binds	B1
